6 molecules from patent US20140120095A1 (Boehringer Ingelheim, published 2014) can be followed below.

The target of test [1] is T1, recombinant human DLL4 (human, UniProt Q9NR61 25-522).
T1 construct: also called rhDLL4; hDLL4
The experiment in a line: hDLL4 ELISA screen, periplasmic extract.

Test [2] deals with T1, recombinant human DLL4. Kind of test: Biacore off-rate, periplasmic extract.
The target in test [3] is T1, recombinant human DLL4. The experiment in a line: AlphaScreen biot-hDLL4/hNotch1-Fc, periplasmic extract.
In test [4] the target is T2, human DLL4 expressed on cells (CHO-hDLL4; HEK293-hDLL4) (human, UniProt Q9NR61 27-685). The experiment in a line: cell-based or functional assay.
Test [5] deals with T3, mouse DLL4 expressed on CHO cells (mouse, UniProt Q9JI71 27-686).
T3 construct: whole, on cells; also called mDLL4; CHO-mDLL4
T3 sequence (Q9JI71 27-686): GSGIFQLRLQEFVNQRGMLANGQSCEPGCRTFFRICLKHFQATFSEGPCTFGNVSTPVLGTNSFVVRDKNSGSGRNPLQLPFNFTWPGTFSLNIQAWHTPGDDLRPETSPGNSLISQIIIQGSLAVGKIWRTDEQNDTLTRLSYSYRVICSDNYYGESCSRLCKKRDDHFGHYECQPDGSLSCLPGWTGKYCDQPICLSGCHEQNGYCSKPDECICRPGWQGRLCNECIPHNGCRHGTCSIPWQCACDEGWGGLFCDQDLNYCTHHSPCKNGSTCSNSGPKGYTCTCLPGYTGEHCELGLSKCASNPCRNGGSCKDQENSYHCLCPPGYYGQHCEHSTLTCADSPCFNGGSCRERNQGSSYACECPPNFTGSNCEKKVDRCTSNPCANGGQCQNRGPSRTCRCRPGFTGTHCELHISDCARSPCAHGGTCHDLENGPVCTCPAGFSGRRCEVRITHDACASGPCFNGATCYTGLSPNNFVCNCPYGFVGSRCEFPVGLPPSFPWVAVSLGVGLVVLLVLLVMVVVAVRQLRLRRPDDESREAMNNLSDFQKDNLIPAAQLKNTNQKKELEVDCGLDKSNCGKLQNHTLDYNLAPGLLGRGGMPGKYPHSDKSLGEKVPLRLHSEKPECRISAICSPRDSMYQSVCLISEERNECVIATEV
Kind of test: competition FMAT, labelled hNotch1-Fc on CHO-mDLL4 cells.

Test [6] has as its target T4, recombinant human DLL4 (C-terminally His-tagged extracellular domain, R&D Systems) (human, UniProt Q9NR61 25-522, biotinylated in the competition ELISA). Kind of test: cell-based or functional assay.
Test [7] concerns the target T2, human DLL4 expressed on cells …. The experiment in a line: competition FMAT, labelled hNotch1-Fc on CHO-hDLL4 cells.
For test [8], the target named is T4, recombinant human DLL4 (C-terminally …). Kind of test: SPR (Biacore), recombinant human DLL4. The method, then: (§1) Kinetic analysis to determine the affinity of the DII4-VHH interaction is performed by Surface Plasmon Resonance (SPR) on a Biacore T100 instrument. […] Purified VHHs or Fab fragment are injected for 2 minutes at different concentrations (between 10 and 300 nM) and allowed to dissociate for 20 min at a flow rate of 45 μl/min. Between sample injections, the surfaces are regenerated with 10 mM glycine pH1.5 and 100 mM HCl. HBS-N (Hepes buffer pH7.4) is used as running buffer. If possible, data are evaluated by fitting a 1:1 interaction model (Langmuir binding) onto the binding curves. The affinity constant KD is calculated from resulting association and dissociation rate constants (kₐ) and […].

For test [9], the target named is T3, mouse DLL4 expressed on CHO cells. Kind of test: competition FMAT CHO-mDLL4; summary table.
The target in test [10] is T4, recombinant human DLL4 (C-terminally …). The experiment in a line: competition ELISA hDLL4/hNotch1-Fc; summary table.
Test [11] addresses T5, recombinant mouse DLL4 (C-terminally His-tagged extracellular domain, R&D Systems) (mouse, UniProt Q9JI71 27-532).
T5 construct: extracellular domain; also called rmDLL4; mDLL4
The experiment in a line: SPR (Biacore), rmDLL4.

Test [12] deals with T2, human DLL4 expressed on cells …. Kind of test: competition FMAT, labelled hNotch1-Fc on CHO-hDLL4 cells. The source holds these as a separate data set.
Test [13] deals with T3, mouse DLL4 expressed on CHO cells. The experiment in a line: competition FMAT, labelled hNotch1-Fc on CHO-mDLL4 cells. The source holds these as a separate data set.
Test [14] has as its target T2, human DLL4 expressed on cells …. Kind of test: FACS; summary table, column taken as hDLL4.
In test [15] the target is T5, recombinant mouse DLL4 (C-terminally …). The experiment in a line: binding ELISA on coated recombinant mouse DLL4 (Example 5.8, Example 7), OD 450 nm.
In test [16] the target is T6, human Jagged-1 (Alexis) (human, UniProt P78504 34-1067, limits assumed).
T6 construct: also called hJag-1; hJAG1
Kind of test: binding ELISA on coated human Jagged-1 (Example 5.8, Example 7), OD 405 nm.

Test [17] deals with T4, recombinant human DLL4 (C-terminally …). Kind of test: competition ELISA, biotinylated hDLL4 to coated hNotch1-Fc.
For test [18], the target named is T7, cynomolgus DLL4 expressed on CHO cells (cynomolgus, UniProt Q9NR61 27-685 (human entry)).
T7 construct: also called cDLL4; CHO-cDLL4
T7 chain: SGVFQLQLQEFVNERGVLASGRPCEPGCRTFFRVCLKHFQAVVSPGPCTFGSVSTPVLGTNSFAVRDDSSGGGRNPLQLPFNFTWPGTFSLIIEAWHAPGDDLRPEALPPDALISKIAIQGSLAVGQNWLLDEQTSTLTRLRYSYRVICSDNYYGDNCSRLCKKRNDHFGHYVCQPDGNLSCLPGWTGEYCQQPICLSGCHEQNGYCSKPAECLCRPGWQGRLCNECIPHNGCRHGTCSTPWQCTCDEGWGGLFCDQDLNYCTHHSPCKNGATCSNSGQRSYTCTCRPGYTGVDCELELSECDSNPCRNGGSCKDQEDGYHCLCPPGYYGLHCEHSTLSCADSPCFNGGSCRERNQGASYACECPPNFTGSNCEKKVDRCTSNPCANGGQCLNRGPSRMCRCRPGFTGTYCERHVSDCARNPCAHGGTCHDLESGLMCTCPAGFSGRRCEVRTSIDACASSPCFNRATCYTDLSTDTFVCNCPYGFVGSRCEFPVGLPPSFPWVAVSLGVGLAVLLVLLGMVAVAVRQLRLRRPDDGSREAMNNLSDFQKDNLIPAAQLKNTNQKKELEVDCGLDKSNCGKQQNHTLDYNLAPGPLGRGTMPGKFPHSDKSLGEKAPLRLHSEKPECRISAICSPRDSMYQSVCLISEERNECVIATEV
The experiment in a line: FACS; summary table, column taken as cDLL4.

The target in test [19] is T7, cynomolgus DLL4 expressed on CHO cells. Kind of test: FACS on CHO-cDLL4 cells.
The target of test [20] is T4, recombinant human DLL4 (C-terminally …). Kind of test: binding ELISA on coated recombinant human DLL4 (Example 5.8, Example 7), OD 450 nm.
Test [21] concerns the target T2, human DLL4 expressed on cells …. The experiment in a line: cell-based or functional assay. The source holds these as a separate data set.
The target in test [22] is T8, human DLL1 (Alexis) (human, UniProt O00548 18-545, limits assumed).
T8 construct: also called hDLL1
T8 sequence (looked up): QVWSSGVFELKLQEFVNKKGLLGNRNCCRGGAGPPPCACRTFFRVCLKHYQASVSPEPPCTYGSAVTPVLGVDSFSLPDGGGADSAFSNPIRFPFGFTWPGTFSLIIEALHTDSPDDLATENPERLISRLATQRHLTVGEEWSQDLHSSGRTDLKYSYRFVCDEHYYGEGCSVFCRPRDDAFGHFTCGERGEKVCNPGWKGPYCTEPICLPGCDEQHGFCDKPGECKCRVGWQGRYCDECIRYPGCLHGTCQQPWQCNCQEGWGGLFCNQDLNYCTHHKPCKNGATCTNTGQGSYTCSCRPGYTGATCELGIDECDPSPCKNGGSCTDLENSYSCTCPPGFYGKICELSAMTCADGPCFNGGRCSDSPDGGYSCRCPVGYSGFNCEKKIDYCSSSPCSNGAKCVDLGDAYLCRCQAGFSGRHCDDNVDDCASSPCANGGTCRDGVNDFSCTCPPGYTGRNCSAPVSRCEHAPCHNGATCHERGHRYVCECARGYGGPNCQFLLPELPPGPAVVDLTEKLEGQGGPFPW
The experiment in a line: binding ELISA on coated human DLL1 (Example 5.8, Example 7), OD 450 nm.

For test [23], the target named is T4, recombinant human DLL4 (C-terminally …). Kind of test: SPR (Biacore), rhDLL4. How it is done:
as §1

The target of test [24] is T5, recombinant mouse DLL4 (C-terminally …). Kind of test: SPR (Biacore); summary table.
Test [25] concerns the target T4, recombinant human DLL4 (C-terminally …). The experiment in a line: SPR (Biacore); summary table.
Test [26] has as its target T2, human DLL4 expressed on cells …. The experiment in a line: competition FMAT CHO-hDLL4; summary table.
The target is the same in test [27]. Kind of test: FACS on CHO-hDLL4 cells.

T5 sequence (Q9JI71 27-532): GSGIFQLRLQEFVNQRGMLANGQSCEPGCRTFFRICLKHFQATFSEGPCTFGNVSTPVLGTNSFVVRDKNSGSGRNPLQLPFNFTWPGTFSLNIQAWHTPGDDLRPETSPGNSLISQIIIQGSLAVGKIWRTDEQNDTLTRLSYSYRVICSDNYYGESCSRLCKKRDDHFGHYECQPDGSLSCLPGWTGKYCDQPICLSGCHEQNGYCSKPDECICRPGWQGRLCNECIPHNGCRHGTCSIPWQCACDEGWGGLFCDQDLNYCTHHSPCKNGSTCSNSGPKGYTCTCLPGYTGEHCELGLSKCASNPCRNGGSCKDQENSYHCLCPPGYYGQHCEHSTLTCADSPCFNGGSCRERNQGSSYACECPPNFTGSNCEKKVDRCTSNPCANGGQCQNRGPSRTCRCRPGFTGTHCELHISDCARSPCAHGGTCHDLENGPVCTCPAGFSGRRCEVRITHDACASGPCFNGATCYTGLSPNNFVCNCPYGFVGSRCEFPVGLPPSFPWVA

B1: DLLBII28B06 (VHH)
VHH: EVQLVESGGGLVQAGGSLRLSCAASGSTFSTYAMGWYRQDPGNQRELVAAISSDGSTHYADSVKGRFTISRDNAKNTVYLQMNSLKPEDTAVYYCYAPVKVAGLEYDYWGQGTQVTVSS
On to B1, for which the “% inh” value in test [1] worked out at 23%; in test [3], 54%. Further, in test [2], the koff turned out to be 0.0075 s⁻¹.

B2: DLLBII19F12 (VHH)
VHH: EVQLVESGGGLVQAGGSLRLSCTASGSTFTSYAMGWYRQAPGKQRELVAAISSDDSTYYADCVKGRFTISRDNAKNTVYLQMNSLKPEDTAVYYCNAPHSDYDEEAPSDFGSWGQGTQVTVSS
Regarding B2, the “% inh” value in test [1] and in test [3] was 98% each time. In addition, the koff in test [2] was 0.00049 s⁻¹.

B3: DLLBII33C05 (VHH)
VHH: EVQLVESGGGLVQAGGSLRLSCAASGFTLDNYVIGWFRQAPGKEREEVSCISSSGGSTDYLDSVKGRFTISRDNAKNTVYLQMNSLKPEDTAVYYCAADSLPCYYDKMVYDYWGQGTQVTVSS
Turning to B3, the “% inh” value was 86% in test [1] and 75% in test [3]. Besides, the koff in test [2] was 0.00092 s⁻¹.

B4: DLLBII018 (VHH, not shown: small tags and cut ends)
VHH: EVQLVESGGGLVQPGGSLRLSCAASGRTFSSYAMAWYRQAPGKEREYVAAIRWSGGTAYYADSVKGRFTISRDNAKNTVYLQMNSLRPEDTAVYYCANRAPDTRLAPYEYDHWGQGTLVTVSS
On to B4, for which, in test [4], the “IC50, DLL4-mediated reporter assay (hDLL4)” value came out at 136 nM. In test [5], this molecule came in with an IC50 of 15.4 nM. In test [6], the “IC50, DLL4-mediated HUVEC proliferation assay” value amounted to 5.3 nM and the “Inhibition (%), DLL4-mediated HUVEC proliferation assay” value was found to be 100%. In [7], this molecule yielded an IC50 of 11 nM. Besides, in test [8], the Kd amounted to 0.2 nM, the koff is 9.4e-05 s⁻¹ and the kon is 450000 M⁻¹ s⁻¹.

B5: DLLBII115A05 (VHH, not shown: small tags and cut ends)
VHH: EVQLVESGGGLVQPGGSLRLSCAASGFTFGSYDMSWVRRSPGKGPEWVSSINSGGGSTYYADFVKGRFTISRDNAKNTLYLQMNSLKPEDTAVYYCAADRYIRARQGDYWGAYEYDYWGQGTQVTVSS
notes: parent VHH; also called 115A05 (wt); 115A5
Take B5: the IC50 in test [9] came out at 349 nM; in test [10] it was 7.5 nM; in [12], 107 nM; in [13] it was 349 nM; in test [17], 7.5 nM; in test [26] it was 107 nM. Moreover, the Kd in [11] was found to be 53 nM; in test [23], 16 nM; in [24], 53 nM; in [25] it was 16 nM. Also, the koff in test [11] turned out to be 0.0091 s⁻¹; in test [23], 0.004 s⁻¹. The kon in [11] stood at 170000 M⁻¹ s⁻¹; in test [23], 250000 M⁻¹ s⁻¹. The EC50 is 11.3 nM in test [14], 13.8 nM in test [18], 13.8 nM in test [19] and 11.3 nM in test [27]. Also, the figures for the “EC50 (read off the curve)” value in test [15] and in test [20] were about 10 nM and about 2 nM, respectively. For the same molecule, the binding result in test [16] and in test [22] was “no binding (tested: log[M] -6.1 (about 8e-7 M))” throughout. In test [21], the “IC50, DLL4-mediated reporter assay” value is 1340 nM.

B6: DLLBII036 (VHH, not shown: small tags and cut ends)
VHH: EVQLVESGGGLVQPGGSLRLSCAASGFTFGSYDMSWVRRAPGKGPEWVSSISSGGGSTYYADYVKGRFTISRDNAKNTLYLQMNSLRPEDTAVYYCAADRYIWARQGEYWGAYEYDYWGQGTLVTVSS
Take B6: the “IC50, DLL4-mediated reporter assay (hDLL4)” value in test [4] was found to be 78 nM. Moreover, in test [5], the IC50 turned out to be 44.7 nM. In [6], the “IC50, DLL4-mediated HUVEC proliferation assay” value was found to be 7.6 nM and the “Inhibition (%), DLL4-mediated HUVEC proliferation assay” value is 100%. In test [7], this molecule returned an IC50 of 9.7 nM. Besides, in [8], the Kd was 0.8 nM, the koff turned out to be 0.00055 s⁻¹ and the kon worked out at 660000 M⁻¹ s⁻¹.
